In patent US20200010818, “EVALUATION AND IMPROVEMENT OF NUCLEASE CLEAVAGE SPECIFICITY” (President and Fellows of Harvard College, published 2020):

B1: VF2468 28 (dsDNA)
DNA 1: AGCAGCTTCTCCTGGGAGTGAGGG
DNA 2: CCCTCACTCCCAGGAGAAGCTGCT
B2: VF2468 19 TTC4 (dsDNA)
DNA 1: AGCAGAGTCTCTGAGAGTGAGGC
DNA 2: GCCTCACTCTCAGAGACTCTGCT
B3: VF2468 15 (dsDNA)
DNA 1: AGCAACGTCATATTCAGTGAGGA
DNA 2: TCCTCACTGAATATGACGTTGCT
B4: VF2468 78 (dsDNA)
DNA 1: AGCAATGTCAAAAAGAGTGAGGC
DNA 2: GCCTCACTCTTTTTGACATTGCT
B5: VF2468 35 (dsDNA)
DNA 1: AGCAGTGTCCTAAGGGGGTGAGGA
DNA 2: TCCTCACCCCCTTAGGACACTGCT
B6: VF2468 72 (dsDNA)
DNA 1: AGAAACGTCGTGGAGGAGTGAGGG
DNA 2: CCCTCACTCCTCCACGACGTTTCT
B7: VF2468 79 (dsDNA)
DNA 1: AGCACCGTGGCTTCGAGTGAGGC
DNA 2: GCCTCACTCGAAGCCACGGTGCT
B8: VF2468 29 (dsDNA)
DNA 1: AGCAGGGTCAGGGCTGAGTGAGGC
DNA 2: GCCTCACTCAGCCCTGACCCTGCT
B9: VF2468 73 (dsDNA)
DNA 1: AGCAAAGTCTGTACTGAGTGAGGG
DNA 2: CCCTCACTCAGTACAGACTTTGCT
B10: VF2468 18 (dsDNA)
DNA 1: AGCAGAGTCAGACTTGAGTGAGGT
DNA 2: ACCTCACTCAAGTCTGACTCTGCT
B11: VF2468 68 (dsDNA)
DNA 1: AGCACCGTCCCCCTCAGTGAGGC
DNA 2: GCCTCACTGAGGGGGACGGTGCT
B12: VF2468 24 (dsDNA)
DNA 1: AGCAGCGTATCACATGAGTGAGGG
DNA 2: CCCTCACTCATGTGATACGCTGCT
B13: VF2468 23 (dsDNA)
DNA 1: AGCAGCGACGCCTGGGAGTGAGGT
DNA 2: ACCTCACTCCCAGGCGTCGCTGCT
B14: VF2468 11 (dsDNA)
DNA 1: AGCAGCGTCTCCCTTGAGTGATGG
DNA 2: CCATCACTCAAGGGAGACGCTGCT
B15: VF2468 66 GBF1 (dsDNA)
DNA 1: AGCAACGTCCATAGTGTGTGAGAA
DNA 2: TTCTCACACACTATGGACGTTGCT
B16: VF2468 38 (dsDNA)
DNA 1: AGCATCGTCTTCTGTGAGTGAGTA
DNA 2: TACTCACTCACAGAAGACGATGCT
B17: VF2468 69 MTX2 (dsDNA)
DNA 1: AGCAGCGGCGGCTGCAGTGAGGC
DNA 2: GCCTCACTGCAGCCGCCGCTGCT
B18: VF2468 62 (dsDNA)
DNA 1: TGCAGCGGCGTAGGGGAGTGAGGA
DNA 2: TCCTCACTCCCCTACGCCGCTGCA
B19: CCR5-224 9 (dsDNA)
DNA 1: GTCATCTTCATCAAAAGGAACTGCAAAAC
DNA 2: GTTTTGCAGTTCCTTTTGATGAAGATGAC
B20: CCR5-224 21 (dsDNA)
DNA 1: GTCAACCTCAACACCTACAGACTGCAAAAG
DNA 2: CTTTTGCAGTCTGTAGGTGTTGAGGTTGAC
B21: CCR5-224 14 (dsDNA)
DNA 1: GTCCTGCTCAGCAAAAGAAACTGAAAAAG
DNA 2: CTTTTTCAGTTTCTTTTGCTGAGCAGGAC
B22: CCR5-224 16 (dsDNA)
DNA 1: GTCTTCCTGATGCTACCAAACTGGAAAAG
DNA 2: CTTTTCCAGTTTGGTAGCATCAGGAAGAC
B23: CCR5-224 11 TACR3 (dsDNA)
DNA 1: GTCATCTTCATCAGCATAAACTGTAAAGT
DNA 2: ACTTTACAGTTTATGCTGATGAAGATGAC
B24: CCR5-224 15 KCNB2 (dsDNA)
DNA 1: ATGTTCCTCATCTCCCGAAACTGCAAATG
DNA 2: CATTTGCAGTTTCGGGAGATGAGGAACAT
B25: CCR5-224 25 WBSCR17 (dsDNA)
DNA 1: GTTATCCTCAGCAAACTAAAACTGGAACAG
DNA 2: CTGTTCCAGTTTTAGTTTGCTGAGGATAAC

Biological target: T1, VF2468 ZFN heterodimer (UniProt P14870;P14870 SEQ:1-324,SEQ:1-324)
T1 sequence (P14870 other isoform, or with tags, fused parts or gaps, chain 1 of 2): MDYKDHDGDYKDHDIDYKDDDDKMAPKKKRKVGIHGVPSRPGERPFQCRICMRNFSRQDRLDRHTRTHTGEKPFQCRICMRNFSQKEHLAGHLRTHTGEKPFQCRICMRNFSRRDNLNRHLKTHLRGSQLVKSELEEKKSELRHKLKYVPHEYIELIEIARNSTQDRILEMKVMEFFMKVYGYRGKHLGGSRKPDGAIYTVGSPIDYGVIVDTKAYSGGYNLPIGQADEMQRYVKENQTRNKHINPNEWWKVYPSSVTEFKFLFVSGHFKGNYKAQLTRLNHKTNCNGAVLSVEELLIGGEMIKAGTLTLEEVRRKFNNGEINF
T1 sequence (P14870 other isoform, or with tags, fused parts or gaps, chain 2 of 2): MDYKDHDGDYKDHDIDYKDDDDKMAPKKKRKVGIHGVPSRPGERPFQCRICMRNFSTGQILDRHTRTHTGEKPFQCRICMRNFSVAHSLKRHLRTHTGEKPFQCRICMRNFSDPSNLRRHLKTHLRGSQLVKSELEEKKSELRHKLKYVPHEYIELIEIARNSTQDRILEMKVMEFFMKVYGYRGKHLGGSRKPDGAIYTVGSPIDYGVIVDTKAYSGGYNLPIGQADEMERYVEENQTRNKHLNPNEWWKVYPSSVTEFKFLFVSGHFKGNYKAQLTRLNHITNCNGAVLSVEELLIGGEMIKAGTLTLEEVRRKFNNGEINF
Assay: cell_activity; K562
Conditions: tags: FokI obligate heterodimer; in vitro selection used in vitro-translated protein; chain copies: 2 (stated heterodimer)
Description: (§1) PCR for 37 potential CCR5-224 substrates and 97 potential VF2468 substrates was performed with Phusion DNA Polymerase (NEB) and primers “[ZFN] […] fwd” and “[ZFN] […] rev” (Table 9) in 1× Phusion HF Buffer supplemented with 3% DMSO. Primers were designed using Primer3³³. The amplified DNA was purified with the Qiagen PCR Purification Kit, eluted with 10 mM Tris-HCl, pH 8.5, and quantified by 1K Chip on a LabChip GX instrument (Caliper Life Sciences) and combined into separate equimolar pools for the catalytically active and empty vector control samples. PCR products were not obtained for 3 CCR5 sites and 7 VF2468 sites, which excluded these samples from further analysis. Multiplexed Illumina library preparation was performed according to the manufacturer's specifications, except that AMPure XP beads (Agencourt) were used for purification following adapter ligation and PCR enrichment steps. Illumina indices 11 (“GGCTAC”) and 12 (“CTTGTA”) were used for ZFN-treated libraries while indices 4 (“TGACCA”) and 6 (“GCCAAT”) were used for the empty vector controls. Library concentrations were quantified by KAPA Library Quantification Kit for Illumina Genome Analyzer Platform (Kapa Biosystems). Equal amounts of the barcoded libraries derived from active- and empty vector-treated cells were diluted to 10 nM and subjected to single read sequencing on an Illumina HiSeq 2000 at the Harvard University FAS Center for Systems Biology Core facility. Sequences were analyzed using Protocol 9 for active ZFN samples and empty vector controls.

Going from B1 to B2, the activity falls from 0.32 % indels to 0.086 % indels.

Compared with B3, B4 is higher in activity: 0.06 % indels for the first, 0.15 % indels for the second.

First: B5
Second: B6
The activity of the first is higher: 0.13 % indels for the first, 0.042 % indels for the second.

First: B7
Second: B8
The activity of the first is lower: 0.029 % indels for the first, 0.2 % indels for the second.

Compared with B9, B10 is lower in activity: 1.3 % indels for the first, 0.1 % indels for the second.

First: B11
Second: B12
The activity of the first is lower: 0.28 % indels for the first, 0.44 % indels for the second.

First: B13
Second: B14
The activity of the first is higher: 1.1 % indels for the first, 0.04 % indels for the second.

Biological target: T1, VF2468 ZFN heterodimer
Assay: cell_activity; K562; printed value
Conditions: tags: FokI obligate heterodimer; in vitro selection used in vitro-translated protein; chain copies: 2 (stated heterodimer)
Description: as §1

Compared with B15, B16 is lower in activity: 0.64 % indels for the first, 0.082 % indels for the second.

Going from B17 to B18, the activity falls from 0.3 % indels to 0.085 % indels.

Biological target: CCR5-224 ZFN heterodimer (UniProt P14870; SEQ:1-353,SEQ:1-352)
Sequence (P14870 other isoform, or with tags, fused parts or gaps, chain 1 of 2): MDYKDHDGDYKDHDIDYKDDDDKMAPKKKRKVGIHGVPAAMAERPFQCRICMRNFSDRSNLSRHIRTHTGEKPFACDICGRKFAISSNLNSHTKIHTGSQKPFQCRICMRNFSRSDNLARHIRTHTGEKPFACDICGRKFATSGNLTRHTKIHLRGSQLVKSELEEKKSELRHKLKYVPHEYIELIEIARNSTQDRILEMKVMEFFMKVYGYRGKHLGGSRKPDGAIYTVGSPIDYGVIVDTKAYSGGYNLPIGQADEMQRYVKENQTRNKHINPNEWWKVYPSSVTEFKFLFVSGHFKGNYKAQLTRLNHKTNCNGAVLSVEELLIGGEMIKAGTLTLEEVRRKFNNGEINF
Sequence (P14870 other isoform, or with tags, fused parts or gaps, chain 2 of 2): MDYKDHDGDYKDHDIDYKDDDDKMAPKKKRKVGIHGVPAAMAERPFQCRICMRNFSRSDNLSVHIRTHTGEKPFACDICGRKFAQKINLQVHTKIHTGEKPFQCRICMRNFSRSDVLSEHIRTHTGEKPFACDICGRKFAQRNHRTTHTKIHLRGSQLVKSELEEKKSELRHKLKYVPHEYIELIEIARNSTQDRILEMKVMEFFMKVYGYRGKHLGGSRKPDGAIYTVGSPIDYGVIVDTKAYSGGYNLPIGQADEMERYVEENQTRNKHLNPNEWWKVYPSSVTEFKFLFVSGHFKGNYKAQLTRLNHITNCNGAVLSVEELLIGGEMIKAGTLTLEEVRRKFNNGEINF
Assay: cell_activity; K562; in vitro selected at 4 nM
Conditions: tags: FokI obligate heterodimer; in vitro selection used in vitro-translated protein; chain copies: 2 (stated heterodimer)
Description: as §1

Compared with B19, B20 is higher in activity: 0.035 % indels for the first, 0.06 % indels for the second.

Compared with B21, B22 is lower in activity: 0.025 % indels for the first, 0.019 % indels for the second.

Compared with B23, B24 is lower in activity: 0.34 % indels for the first, 0.071 % indels for the second.

In the case of B25, the activity is reported as 0.12 % indels.
